The data set concerns the molecule itself. The experiment in a line: crystal structure; crystals grown in 0.2 M potassium-sodium tartrate, 25% (w/v) PEG 3350 at 20°C, soaked with octanoyl-CoA for up to 2 min; 2.7 Å; four chains (A-D) in the asymmetric unit.

B1: murine KS-MAT didomain (condensing part of murine Type I fatty acid synthase), octanoyl-bound (domain or fragment)
chain: EEVVIAGMSGKLPESENLQEFWANLIGGVDMVTDDDRRWKAGLYGLPKRSGKLKDLSKFDASFFGVHPKQAHTMDPQLRLLLEVSYEAIVDGGINPASLRGTNTGVWVGVSGSEASEALSRDPETLLGYSMVGCQRAMMANRLSFFFDFKGPSIALDTACSSSLLALQNAYQAIRSGECPAALVGGINLLLKPNTSVQFMKLGMLSPDGTCRSFDDSGSGYCRSEAVVAVLLTKKSLARRVYATILNAGTNTDGSKEQGVTFPSGEVQEQLICSLYQPAGLAPESLEYIEAHGTGTKVGDPQELNGITRSLCAFRQAPLLIGSTKSNMGHPEPASGLAALTKVLLSLEHGVWAPNLHFHNPNPEIPALLDGRLQVVDRPLPVRGGNVGINSFGFGGSNVHVILQPNTRQAPAPTAHAALPHLLHASGRTLEAVQDLLEQGRQHSQDLAFVSMLNDIAATPTAAMPFRGYTVLGVEGRVQEVQQVSTNKRPLWFICSGMGTQWRGMGLSLMRLDSFRESILRSDEAVKPLGVKVSDLLLSTDERTFDDIVHAFVSLTAIQIALIDLLTSVGLKPDGIIGHSLGEVACGYADGCLSQREAVLAAYWRGQCIKDAHLPPGSMAAVGLSWEECKQRCPAGVVPACHNSEDTVTISGPQAAVNEFVEQLKQEGVFAKEVRTGGLAFHSYFMEGIAPTLLQALKKVIREPRPRSARWLSTSIPEAQWQSSLARTSSAEYNVNNLVSPVLFQEALWHIPEHAVVLEIAPHALLQAVLKRGVKSSCTIIPLMKRDHKDNLEFFLTNLGKVHLTGINVNPNALFPPVEFPAPRGTPLISPHIKWDHSQTWDVPVAEDFPN
modifications: octanoyl covalently bound to C161 (KS, all four chains of the asymmetric unit); octanoyl covalently bound to S581 (MAT, chain D only)
notes: Type I fatty acid synthase (FAS), murine; condensing part with KS, linker domain (LD) and MAT; residues 1-407 and 824-852 (KS) and 488-806 (MAT) are named in superpositions; Wild type; also called murine FAS KS-MAT didomain; Wildtype soaked with octanoyl-CoA; source: E. coli BL21 Gold (DE3), purified (Ni-NTA, Strep-Tactin, SEC)
For B1, the binding result is listed as “binds”.

Source of the values: article PMC6954729, “Type I fatty acid synthase trapped in the octanoyl‐bound state” (Protein Science : A Publication of the Protein Society, 2020).
